Measurements taken from publication PMC3466176, “Aminopropyltransferases Involved in Polyamine Biosynthesis Localize Preferentially in the Nucleus of Plant Cells” (PLoS ONE, 2012).

B1: His-tagged recombinant spermidine synthase 2 (SPDS2) (enzyme, Arabidopsis thaliana, UniProt O48661 1-340, looked up)
chain: MSSTQEASVTDLPVKRPREAEEDNNGGAMETENGGGEIKEPSCMSSIIPGWFSEISPMWPGEAHSLKVEKILFQGKSDYQDVIVFQSATYGKVLVLDGVIQLTERDECAYQEMITHLPLCSISNPKKVLVIGGGDGGVLREVARHSSVEQIDICEIDKMVVDVAKQYFPNVAVGYEDPRVNLIIGDGVAFLKNAAEGTYDAVIVDSSDPIGPAKELFEKPFFESVNRALRPGGVVCTQAESLWLHMDIIEDIVSNCRDIFKGSVNYAWTSVPTYPSGVIGFMLCSSEGPQVDFKKPVSLIDTDESSIKSHCPLKYYNAEIHSAAFCLPSFAKKVIDSKAN
notes: Arabidopsis spermidine synthase 2 (SPDS2, At1g70310); The Protease 3C site lies before the start ATG, and no cleavage is reported; The insert has no stop codon, so a C-terminal extension from the vector is likely (surmised); also called recombinant His-tagged aminopropyltransferase
B2: His-tagged recombinant spermine synthase (SPMS) (enzyme, Arabidopsis thaliana, UniProt Q94BN2 1-359, looked up)
chain: MEGDVGIGLVCQNTMDGKASNGNGLEKTVPSCCLKAMACVPEDDAKCHSTVVSGWFSEPHPRSGKKGGKAVYFNNPMWPGEAHSLKVEKVLFKDKSDFQEVLVFESATYGKVLVLDGIVQLTEKDECAYQEMIAHLPLCSISSPKNVLVVGGGDGGVLREISRHSSVEVIDICEIDKMVIDVSKKFFPELAVGFDDPRVQLHIGDAAEFLRKSPEGKYDAIIVDSSDPVGPALALVEKPFFETLARALKPGGVLCNMAESMWLHTHLIEDMISICRQTFKSVHYAWSSVPTYPSGVIGFVLCSTEGPAVDFKNPINPIEKLDGAMTHKRELKFYNSDMHRAAFALPTFLRREVASLLAS
notes: Arabidopsis spermine synthase (SPMS, At5g53120); The Protease 3C site lies before the start ATG, and no cleavage is reported; The insert has no stop codon, so a C-terminal extension from the vector is likely (surmised); also called recombinant His-tagged aminopropyltransferase
B3: His-tagged recombinant spermidine synthase 1 (SPDS1) (enzyme, Arabidopsis thaliana, UniProt Q9ZUB3 1-334, looked up)
chain: MDAKETSATDLKRPREEDDNGGAATMETENGDQKKEPACFSTVIPGWFSEMSPMWPGEAHSLKVEKVLFQGKSDYQDVIVFQSATYGKVLVLDGVIQLTERDECAYQEMITHLPLCSIPNPKKVLVIGGGDGGVLREVARHASIEQIDMCEIDKMVVDVSKQFFPDVAIGYEDPRVNLVIGDGVAFLKNAAEGSYDAVIVDSSDPIGPAKELFEKPFFQSVARALRPGGVVCTQAESLWLHMDIIEDIVSNCREIFKGSVNYAWTSVPTYPSGVIGFMLCSTEGPDVDFKHPLNPIDESSSKSNGPLKFYNAEIHSAAFCLPSFAKKVIESKAN
notes: Arabidopsis spermidine synthase 1 (SPDS1, At1g23820); The insert has no stop codon, so a C-terminal extension from the vector is likely (surmised); also called recombinant His-tagged aminopropyltransferase

Molecular target: the molecule itself
Test: SEC; 50 to 100 µg of each affinity purified His-tagged enzyme alone on Superdex 200 10/300 GL, 0.2 mL/min, 20 mM Tris-HCl pH 7.6, 150 mM NaCl; fractions followed by absorbance at 280 nm

Stoichiometry N, 2:
B1
B2
B3
